Assay in all cases: FRET or BRET
Background: In BRET a luciferase serves as donor, and the signal depends on an acceptor being close.

Assay [1] has as its target III3(V834D)-FRET.
Assay [2] addresses III3(D838G)-FRET.
Assay [3] deals with III3(V798D)-FRET.
The target of assay [4] is III3-FRET (III3 flanked by mYPet and mECFP*).

This is an account of results in PMC2680933.

Some results are limits rather than exact numbers.

For anastellin (domain or fragment), in assay [1], the FRET efficiency of the construct with anastellin (0.21 without) came to 0.27, the Kd (commonly a measure of binding affinity in units of concentration) was < 50 nM and the half time of binding was < 1 s. Also, in assay [2], the FRET efficiency of the construct with anastellin (0.18 without) was found to be 0.27, the Kd turned out to be 490 nM and the half time of binding was 60 s. Moreover, in assay [3], the FRET efficiency of the construct with anastellin (0.21 without) stood at 0.28, the Kd worked out at 180 nM and the half time of binding was < 1 s. Moreover, in assay [4], the FRET efficiency of the construct with anastellin (0.19 without) came out at 0.28, the dissociation constant (Kd) worked out at 210 nM, the first order rate constant of binding stood at 0.02 s⁻¹ and the half time of binding is 30 s.
